Assay [1] concerns the target T1, human CD33 (human, UniProt P20138 18-364).
T1 construct: whole, on cells; The target is CD33 on CD33+ tumor cell lines; also called CD33 on MOLM-13, Kasumi-1, OCI-AML-3 and Kasumi-3 cells
The experiment in a line: FACS binding to Kasumi-1 tumor cell line (CD33+).

Assay [2] concerns the target T1, human CD33. The experiment in a line: FACS binding to MOLM-13 tumor cell line (CD33+). A general note: A flow cytometer gives signals particle by particle.
Assay [3] addresses T1, human CD33. As to the kind of experiment: FACS binding to OCI-AML-3 tumor cell line (CD33+).

T1 sequence (P20138 18-364): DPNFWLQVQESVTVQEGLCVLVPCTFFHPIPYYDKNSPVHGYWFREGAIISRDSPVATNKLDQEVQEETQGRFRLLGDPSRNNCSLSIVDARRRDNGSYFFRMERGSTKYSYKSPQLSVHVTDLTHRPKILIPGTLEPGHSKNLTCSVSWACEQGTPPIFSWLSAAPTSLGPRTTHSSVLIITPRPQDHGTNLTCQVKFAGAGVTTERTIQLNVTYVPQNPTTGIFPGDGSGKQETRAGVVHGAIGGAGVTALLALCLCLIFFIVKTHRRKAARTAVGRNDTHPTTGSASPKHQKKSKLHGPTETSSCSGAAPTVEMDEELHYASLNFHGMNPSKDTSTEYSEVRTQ

B1: anti-CD33 antibody (clone C33B904) (antibody, V domains shown)
VH: EVQLVESGGGLVQPGRSLRLSCAASGFTFDDYAMHWVRQAPGKGLEWVSGIGWSGGSIVYADSVKGRFTISRDNAKNSLYLQMNSLRAEDTALYYCAKDSPYGDFFDYWGQGTLVTVSS
VL: DIVMTQSPDSLAVSLGERATINCKSSQTVFYSSNNKNYLAWYQQKPGQPPKLLISWASTRKSGVPDRFSGSGSGTDFTLTVSSLQAEDVAVYYCQHYYSTPYTFGQGTKLEIK
notes: also called anti-CD33 clone C33B904; anti-CD33 mAb
As a reminder, the EC50 is the concentration needed to bring the measured effect to its halfway point. High values mean a need for much substance, low ones an effect from little substance. On to B1, for which the EC50 with human CD33 [1] was 82.2 nM; with human CD33 [2], 134 nM; with human CD33 [3], 16.4 nM.

Values taken from US20210284730A1 (Janssen / Centocor, published 2021).
